This note sets out measurements from patent publication US5650391.

A word on the Kd: it is a measure of binding affinity in units of concentration. A low value points to tighter binding.

Assay [1] concerns the target factor Xa.
The target in assay [2] is TFPI binding sites on rat hepatoma MH1 C1 cells (receptor not identified). Nature of the assay: binding of ^125 I-TFPI to MH1 C1 cell monolayers at 4° C. (saturation with Scatchard analysis, and competition by unlabelled TFPI).
The target in assay [3] is low density lipoprotein receptor-related protein/a2-macroglobulin receptor (LRP) on rat hepatoma MH1 C1 cells (rat).
The target in assay [4] is human low density lipoprotein receptor-related protein (LRP) on human hepatoma HepG2 cells (human) (UniProt Q07954).
Assay [5] deals with low density lipoprotein receptor-related protein/a2-macroglobulin receptor (LRP) on rat hepatoma MH1 C1 cells (rat). The source holds these as a separate data set.

Turning to “recombinant human full-length tissue factor pathway inhibitor (TFPI) (from UniProt P10646) (ligand)”, the functional activity (stoichiometric inhibition of factor Xa) in assay [1] was determined as 88%. In assay [2], this substance gave a Kd of 0.03 µM.
“receptor-associated protein (RAP), 39-kDa protein, full-length (1-319) (ligand)” returned a degradation of pre-bound ^125 I-TFPI in a single cycle of endocytosis in MH1 C1 cells in assay [3] of 80%. This substance also yielded a degradation of pre-bound ^125 I-TFPI by HepG2 cells (single cycle endocytosis assay) in assay [4] of 65%. Further, in assay [5], the inhibition of ^125 I-TFPI degradation (trichloroacetic acid-soluble radioactivity) by MH1 C1 cells, 4 h at 37° C. was 80%.
